Test results from patent US10913781B2, “Pepducin design and use” (Tufts Medical Center, Inc., priority 2011, dated 2021).
Like-named read-outs stand apart in the source and are kept apart here. Peptide text beside a SMILES is read from it. * marks the point of attachment. Palmitoyl = CCCCCCCCCCCCCCCC(=O)*

Columns and labels:
[1] = tested on: A549, HOP62, and HOP92 lung carcinoma cell lines; assay: Cytotoxicity/cell viability of lung carcinoma cells (MIT assay); format: cell-based, human; settings: 3-day period
[2] = tested on: A549 xenografts; format: in vivo, mouse
Protocol: (§1) FIG. 13 illustrates that monotherapy with PAR1-i3 pepducins inhibits tumor progression of A549 xenografts. (A) and (B): A549 mice treated with vehicle, P1pal-7, P1pal-i1-11, P1pal-10S, X1/2-i1, X1/2-i3, or Avastin. Each time point represents the mean±SE. (C): Final tumor volume at the completion of the experiment was calculated as a percentage of untreated vehicle control. (D): Serum-starved A549 adenocarcinoma cells were pretreated with P1pal-7, P1pal-10S, P1pal-i1-11, vehicle, or PD98059 and stimulated with thrombin. VEGF production was assessed by enzyme-linked immunosorbent assay. Data are expressed as mean±SD (*P<0.05, **P<0.01).
PAR1 expression level is correlated with reduced survival of patients with NSCLC. To define the relative importance of PAR1 in lung tumor progression, in vivo mouse models were used. […] An A549 lung adenocarcinoma xenograft model in nude mice was used to evaluate monotherapy with P1pal-7, P1pal-10S, P1pal-i1-11, or the VEGF antagonist Avastin.

[3] = tested on: VEGF-A production; assay: Thrombin-dependent VEGF-A production in A549 cells (ELISA); format: cell-based, human; settings: A549, 18 hours thrombin treatment
Protocol: as §1
Because the i3-based P1pal-7 pepducin had similar efficacy as Avastin in suppressing lung tumor growth of A549 xenografts, VEGF-A production was measured in the A549 tumor cells after 18 hours thrombin treatment. […] Unlike in ovarian cancer, no increase was found in PAR1-mediated IL-8 production in A549 cells, consistent with the observed lack of efficacy of CXCR1/2 pepducins in the A549 xenograft models. These xenograft data provide support for the role of a novel PAR1-ERK1/2-VEGF paracrine pathway that is an effective therapeutic target in the A549 adenocarcinoma lung cancer model.

[4] = Pharmacokinetics of PAR1 pepducins in CF-1 mice, plasma LC/MS/MS; format: in vivo, mouse; settings: 10 mg/kg s.c.
Protocol: FIG. 14 illustrates pharmacokinetics of PAR1 pepducins. (A): CF-1 mice were injected subcutaneously with P1pal-7 (3 mg/kg, open circles), P1pal-7 (10 mg/kg, closed circles), P1pal-10S (10 mg/kg, gray circles), or P1pal-i1-11 (10 mg/kg, open squares) in 20% dimethyl sulfoxide and blood was collected at indicated time points (n=3). Pepducin levels in plasma were quantified with LC/MS/MS. (B): Daily (D1 to D6) plasma levels of P1pal-7 after subcutaneous injection of 10 mg/kg P1pal-7 were measured at 1 hour (open circles) and 24 hours (open squares).
Pharmacokinetics of plasma levels of P1pal-7, P1pal-10S, and P1pal-i1-11 at 30 minutes, and at 1, 2, 4, 6, 8, and 16 hours was measured by LC/MS/MS to determine steady-state pepducin drug levels and the rate of elimination from mice. Subcutaneous injections of P1pal-7 (3 mg/kg or 10 mg/kg) into wild-type CF-1 mice (25 to 30 g) was followed by blood collection at various time points from the vena cava. […] Residual P1pal-7 levels were 10 nmol/L at the 16-hour time point. After the 4-hour plateau, the elimination rate was linear from 4 to 16 hours. The peak plasma level of 3 mg/kg P1pal-7 reached 0.6 μmol/L at 2 hours and elimination was linear between 2 hours and 16 hours. P1pal-10S (10 mg/kg) gave similar peak plasma level of 1.0 μmol/L as P1pal-7 (10 mg/kg) at 1 hour.
Lastly, the peak plasma level of P1pal-7 (10 mg/kg) was measured before and 1 hour after once-daily subcutaneous injection over 6 days to determine whether the peak plasma levels were consistent on daily administration.

[5] = target: T1, PAR1 (Homo sapiens, UniProt P25116); assay: ERK1/2 phosphorylation in A549 cells (thrombin or […]), Western blot; format: cell-based; design: endogenous in cells; host or cells: A549, HOP62, H1299, H522, H226, HOP92 lung carcinoma lines; settings: A549 cells; pepducin 0.1-3 μM
T1 sequence (P25116 22-425): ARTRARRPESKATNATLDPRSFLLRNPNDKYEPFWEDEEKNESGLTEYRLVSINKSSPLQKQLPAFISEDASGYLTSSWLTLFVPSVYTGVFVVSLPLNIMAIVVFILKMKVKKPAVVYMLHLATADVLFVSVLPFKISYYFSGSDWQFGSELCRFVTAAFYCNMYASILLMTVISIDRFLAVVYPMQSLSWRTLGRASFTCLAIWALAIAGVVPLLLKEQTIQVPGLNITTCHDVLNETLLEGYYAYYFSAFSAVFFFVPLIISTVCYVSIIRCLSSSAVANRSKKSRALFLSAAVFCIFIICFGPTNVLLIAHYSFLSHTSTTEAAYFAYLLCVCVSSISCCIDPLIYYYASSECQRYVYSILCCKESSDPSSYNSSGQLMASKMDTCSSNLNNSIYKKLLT
Protocol: FIG. 9 illustrates that differential inhibition of PAR1-ERK activation by i3- and i1-derived PAR1 pepducins. (A-C): Western blots of lysates from A549 cells untreated, or treated with thrombin, SLIGKV (SEQ ID NO:29), or AYPGKF (SEQ ID NO:5). Indicated samples were pretreated with various concentrations (0.1 to 3 μmol/L) of P1pal-7, P1pal-10S, or P1pal-i1-11 before stimulation and immunoblotted with anti-phospho-ERK. (D-F): Quantification of the Western blots in (A-C) were conducted by densitometry and results are expressed relative to maximum (fold max) phosphorylation of pERK.
(B): A549 cells stimulated with 10 μM […] over 2 h. A549 cells pretreated with 0.1 μM P1pal-7 and stimulated with 10 μM […] (SEQ ID NO:30) for 5 min. Total ERK was used as a loading control.
Last, there has been a great deal of interest in understanding the mechanism of PAR1-mediated activation of MAP kinase cascade and PAR1-dependent cellular growth and differentiation, proliferation and gene transcription. […] The effects of i1 versus i3 PAR1 pepducins on ERK1/2 activation were examined in the A549 lung adenocarcinoma cell line. […] Inhibition experiments with a range of pepducin concentrations (0.1-3 μM) were conducted. […] The […] (SEQ ID NO:30) peptide gave a rapid and transient ERK1/2 phosphorylation signal that peaked at 5-15 min after stimulation. […] To determine the specificity of the PAR1 pepducin inhibitors, their effects on the closely related PAR2 and PAR4 receptors were also tested.

[6] = target: T2, PAR2 (Homo sapiens, UniProt P55085); assay: Agonist | (%)^†; design: SW620 colon adenocarcinoma cells that endogenously express PAR2; endogenous in cells; host or cells: SW620 (in A7 the SW620 cells were additionally stably transfected with PAR1); settings: 4 µM
Protocol: (§2) (A) Agonist and antagonist activity of third intracellular (i3) loop PAR2 pepducins (structure shown on top) using calcium flux assays with SW620 colon adenocarcinoma cells that endogenously express PAR2. Each column of three calcium flux traces corresponds to the i3 pepducin sequence shown above. The top row is the agonist activity of 3-4 μM pepducin and the middle row is the agonist activity of 14-15 μM pepducin. […] Final concentration of DMSO vehicle was 0.2%. […] (C) Agonist activity for each pepducin from (A) is reported as initial velocity of calcium flux at 4 μM pepducin (†), or at 14-15 μM pepducin (‡).

[7] = target: T2, PAR2; assay: Antagonist | (% inhibition); design: SW620 colon adenocarcinoma cells that endogenously express PAR2; endogenous in cells; host or cells: SW620 (in A7 the SW620 cells were additionally stably transfected with PAR1); settings: 6 µM
Protocol: as §2

[8] = target: T2, PAR2; assay: Agonist | (%)^‡; design: SW620 colon adenocarcinoma cells that endogenously express PAR2; endogenous in cells; host or cells: SW620 (in A7 the SW620 cells were additionally stably transfected with PAR1)
[9] = target: T2, PAR2; assay: Calcium flux screen for PAR2 pepducin agonist and antagonist activity in SW620 cells; format: cell-based; design: SW620 colon adenocarcinoma cells that endogenously express PAR2; endogenous in cells; host or cells: SW620 (in A7 the SW620 cells were additionally stably transfected with PAR1); settings: for Antagonist activity (inhibition of SLIGRL calcium flux, area under the curve): 6 μM pepducin, 1 min pretreatment, against 100 μM SLIGRL; for Agonist activity (calcium flux): 3-4 μM and 14-15 μM pepducin
Protocol: as §2

With `CCCCCCCCCCCCCCCC(=O)N[C@@H](CC(N)=O)C(=O)N[C@@H](CCCNC(=N)N)C(=O)N[C@@H](CO)C(=O)N[C@@H](CCCCN)C(=O)N[C@@H](CCCCN)C(=O)N[C@@H](CO)C(=O)N[C@@H](CO)C(=O)N[C@@H](C)C(=O)N[C@@H](CC(C)C)C(=O)N[C@@H](Cc1ccccc1)C(N)=O` [P1pal-10S] (Palmitoyl-NRSKKSSALF-NH2) as the compound, how does the “Sensitivity of A549 cells (cytotoxicity)” value [1] read?
The value was “most sensitive”.

And the “Inhibition of tumor progression/growth (final tumor volume vs vehicle)” value ([2]; mouse, in vivo)?
The value was 40%.

And the “Effect on thrombin-dependent VEGF-A production” value [3]?
Its value is “partially blocked”.

What about the “Clearance / plasma half-life in words” value [4] of the same compound?
Its value is “rapid clearance after 1 hour”.

What about the Tmax ([4]; CF-1, mouse, plasma, sc, read-out: Time of peak plasma level) of the same compound?
The Tmax was 1 h.

And the Cmax ([4]; mouse, plasma, sc, CF-1 mice, read-out: Peak plasma level)?
The Cmax was 1 µM.

What about the “Effect on thrombin-induced ERK1/2 phosphorylation” value [5] of the same compound?
Its value is “complete inhibition”.

Which “Effect on thrombin-dependent VEGF-A production” value [3] does the source give for `COc1cccc(-c2cc(=O)c3ccccc3o2)c1N` [PD98059, reference compound] here?
Its value is “could suppress”.

For “Avastin: VEGF antibody; VEGF antagonist [reference compound]”, which “Inhibition of tumor progression/growth (final tumor volume vs vehicle)” value ([2]; monotherapy, nude mice) is on record?
Its value is 75%.

With “P2pal-14GF: N-terminally truncated palmitoylated PAR2 pepducin, M274 to G and K287 to F; SEQ ID NO:23 (Palmitoyl-GDENSEKKRKRAIF-NH2) [listing 1 of 2 here]” as the compound, how does the “Agonist | (%)^†” value [6] read?
Its value is 3%.

What about the “Antagonist | (% inhibition)” value [7] of the same compound?
Its value is 0 % inhibition.

What about the “Agonist | (%)^‡” value [8] of the same compound?
Its value is 8%.

For “P2pal-14GF: N-terminally truncated palmitoylated PAR2 pepducin, M274 to G and K287 to F; SEQ ID NO:23 (Palmitoyl-GDENSEKKRKRAIF-NH2) [listing 2 of 2 here]”, which “Antagonist activity (inhibition of SLIGRL calcium flux, area under the curve)” value [9] is on record?
The value was “no significant agonist or any detectable antagonist activity”.

What about the “Agonist activity (calcium flux)” value [9] of the same compound?
The value was “no significant agonist”.

With “P2pal-18F: palmitoylated PAR2 pepducin, K287 to F, first three residues (R267, M268, L269) deleted; SEQ ID NO:19 (Palmitoyl-RSSAMDENSEKKRKRAIF-NH2) [listing 1 of 2 here]” as the compound, how does the “Agonist | (%)^†” value [6] read?
Its value is 5%.

What about the “Antagonist | (% inhibition)” value [7] of the same compound?
Its value is 0 % inhibition.

And the “Agonist | (%)^‡” value [8]?
The value was 35%.

Which “Antagonist activity (inhibition of SLIGRL calcium flux, area under the curve)” value [9] does the source give for “P2pal-18F: palmitoylated PAR2 pepducin, K287 to F, first three residues (R267, M268, L269) deleted; SEQ ID NO:19 (Palmitoyl-RSSAMDENSEKKRKRAIF-NH2) [listing 2 of 2 here]” here?
The value was “devoid of antagonist activity”.

What about the “Agonist activity (calcium flux)” value [9] of the same compound?
The value was “slight decrease in agonist activity at lower concentration”.

Which “Agonist | (%)^‡” value [8] does the source give for “P2pal-18Q: palmitoylated PAR2 pepducin, R284 replaced by glutamine; SEQ ID NO:22 (Palmitoyl-RSSAMDENSEKKRKQAIK-NH2) [listing 1 of 2 here]” here?
Its value is 16%.

With “P2pal-18Q: palmitoylated PAR2 pepducin, R284 replaced by glutamine; SEQ ID NO:22 (Palmitoyl-RSSAMDENSEKKRKQAIK-NH2) [listing 2 of 2 here]” as the compound, how does the “Agonist activity (calcium flux)” value [9] read?
The value was “nearly no agonist activity”.

Which “Agonist | (%)^†” value [6] does the source give for “P2pal-18SF: palmitoylated PAR2 pepducin, R284 to S and K287 to F; SEQ ID NO:21 (Palmitoyl-RSSAMDENSEKKRKSAIF-NH2) [listing 1 of 2 here]” here?
Its value is 8%.

And the “Antagonist | (% inhibition)” value [7]?
The value was 57 % inhibition.

And the “Agonist | (%)^‡” value [8]?
Its value is 30%.

With “P2pal-18SF: palmitoylated PAR2 pepducin, R284 to S and K287 to F; SEQ ID NO:21 (Palmitoyl-RSSAMDENSEKKRKSAIF-NH2) [listing 2 of 2 here]” as the compound, how does the “Agonist activity (calcium flux)” value [9] read?
The value was “restored agonist activity”.
